B1: KLC1 TPR (protein)
chain: GGYEIPARLRTLHNLVIQYASQGRYEVAVPLCKQALEDLEKTSGHDHPDVATMLNILALVYRDQNKYKDAANLLNDALAIREKTLGKDHPAVAATLNNLAVLYGKRGKYKEAEPLCKRALEIREKVLGKDHPDVAKQLSNLALLCQNQGKYEEVEYYYQRALEIYQTKLGPDDPNVAKTKNNLASCYLKQGKFKQAETLYKEILTRAHEREFGSVDDENKPIWMHAEEREECKGKQKDGTSFGEYGGWYKACKVDSPTVTTTLKNLGALYRRQGKFEAAETLEEAAMRSRKQG
B2: KLC1 TPR (protein)
chain: GGYEIPARLRTLHNLVIQYASQGRYEVAVPLCKQALEDLEKTSGHDHPDVATMLNILALVYRDQNKYKDAANLLNDALAIREKTLGKDHPAVAATLNNLAVLYGKRGKYKEAEPLCKRALEIREKVLGKDHPDVAKQLNNLALLCQNQGKYEEVEYYYQRALEIYQTKLGPDDPNVAKTKNNLASCYLKQGKFKQAETLYKEILTRAHEREFGSVDDENKPIWMHAEEREECKGKQKDGTSFGEYGGWYKACKVDSPTVTTTLKNLGALYRRQGKFEAAETLEEAAMRSRKQG

Molecular target: T1, ALC1 peptide (Homo sapiens, UniProt O94985)
T1 chain: KENEMDWDDSALTI
Assay: ITC

Binder | Kd [µM]
B1 | 44
B2 | 50

— paper PMC3314626 (2012)
